Laboratory results reported in patent US20160207974A1 (published 2016).

B1: PEP07986-neutral linker-A500 (Compound 2) (other)
chain: MGSLAEAKEAANAELDSYGVSDFYKRLIDKAKTVEGVEALKDAILAALPTGGGGSGGGSGGGSGGGSASVPIQKVQDDTKTLIKTIVTRINDISHTQSVSSKQKVTGLEFIPGLHPILTLSKMDQTLAVYQQILTSMPSRNVIQISNDLENLRDLLHVLAFSKSCHLPQASGLETLESLGGVLEASGYSTEVVALSRLQGSLQDMLQQLDLSPGC
notes: also called Cmpd 2; PEP07986-Neutral-A500
B2: PEP07986-negative linker-A500 (Compound 12) (other)
chain: MGSLAEAKEAANAELDSYGVSDFYKRLIDKAKTVEGVEALKDAILAALPTGGEGGEGGEGGEGGEGGEASVPIQKVQDDTKTLIKTIVTRINDISHTQSVSSKQKVTGLEFIPGLHPILTLSKMDQTLAVYQQILTSMPSRNVIQISNDLENLRDLLHVLAFSKSCHLPQASGLETLESLGGVLEASGYSTEVVALSRLQGSLQDMLQQLDLSPGC
notes: also called Cmpd 12; PEP07986-Negative-A500

Molecular target: T1, monkey serum albumin (monkey)
T1 construct: also called Monkey SA
T1 sequence (Q28522 17-600): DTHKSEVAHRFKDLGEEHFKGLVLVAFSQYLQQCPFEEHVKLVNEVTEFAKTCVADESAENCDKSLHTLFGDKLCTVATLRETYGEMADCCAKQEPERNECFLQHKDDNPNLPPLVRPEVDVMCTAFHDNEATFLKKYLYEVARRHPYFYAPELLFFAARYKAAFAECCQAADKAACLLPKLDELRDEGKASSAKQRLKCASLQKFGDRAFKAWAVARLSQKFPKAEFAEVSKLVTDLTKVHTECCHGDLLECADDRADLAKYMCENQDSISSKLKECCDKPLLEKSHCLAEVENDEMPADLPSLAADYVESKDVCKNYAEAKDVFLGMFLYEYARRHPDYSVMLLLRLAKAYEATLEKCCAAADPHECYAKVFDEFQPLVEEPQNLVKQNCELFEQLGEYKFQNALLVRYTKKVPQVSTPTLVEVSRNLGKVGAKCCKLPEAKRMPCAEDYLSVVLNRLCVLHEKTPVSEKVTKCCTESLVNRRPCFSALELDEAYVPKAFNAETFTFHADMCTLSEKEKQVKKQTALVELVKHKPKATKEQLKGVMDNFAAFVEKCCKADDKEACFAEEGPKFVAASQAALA
Test: SPR (BioRad ProteOn XPR36), albumin amine-coupled to GLC chip, analyte from 5 nM in 3-fold dilutions, 25 C
Experimental: All studies were conducted on a BioRad ProteOn XPR36 system using a GLC sensor chip at 25 degrees C. For amine coupling the GLC chip was activated for 5 minutes using a 1:1 mixture of sulfo-NHS/EDC diluted 30-fold from the initial stock in water as shown below. Each albumin sample was diluted to 25 ug/ml in 10 mM Na Acetate pH 5.0 and injected for 5 minutes over separate sensor surfaces. Each surface was then blocked with 1 M ethanolamine pH 8.5. Each albumin was coupled at a density of 2000-5000 in resonance units.
The binding of an engineered polypeptide was tested using 5 nM as the highest concentration in a three-fold dilution series. The running buffer contained 10 mM HEPES pH 7.4, 150 mM NaCl, 3 mM EDTA and 0.005% tween-20. All samples were tested using a 3-fold dilution series. Each concentration series was tested in duplicate. The dissociation phase for the highest concentration […] was monitored for 3 hours.

| Kd [nM] | Binder |
| --- | --- |
| 0.405 | B1 |
| 0.4 | B2 |
